Reference: patent publication US20260007740A1 (SPYBIOTECH, published 2026)

Biological target: T1, SpyCatcher-HBsAg (Hepatitis B virus (adw serotype) for …)
T1 construct: Expressed in Pichia pastoris; also called HBsAg VLP monomer; SpyCatcher-HBsAg VLP
Assay: isopeptide conjugation in TBS, followed by SDS-PAGE and Western blot

B1: RSV-F-SpyTag (RSV-F Sc9-10 DS-Cav1 A149C Y458C-SpyTag-Ctag) (other)
chain: QNITEEFYQSTCSAVSKGYLSALRTGWYTSVITIELSNIKENKCNGTDAKVKLIKQELDKYKNAVTELQLLMQSTPATGSGSAICSGVAVCKVLHLEGEVNKIKSALLSTNKAVVSLSNGVSVLTFKVLDLKNYIDKQLLPILNKQSCSISNIETVIEFQQKNNRLLEITREFSVNAGVTTPVSTYMLTNSELLSLINDMPITNDQKKLMSNNVQIVRQQSYSIMCIIKEEVLAYVVQLPLYGVIDTPCWKLHTSPLCTTNTKEGSNICLTRTDRGWYCDNAGSVSFFPQAETCKVQSNRVFCDTMNSRTLPSEVNLCNVDIFNPKYDCKIMTSKTDVSSSVITSLGAIVSCYGKTKCTASNKNRGIIKTFSNGCDYVSNKGVDTVSVGNTLYCVNKQEGKSLYVKGEPIINFYDPLVFPSDEFDASISQVNEKINQSLAFIRKSDELLSAIGGYIPEAPRDGQAYVRKDGEWVLLSTFLGSGGSGAHIVMVDAYKPTKEPEA
notes: Pre-fusion-stabilised single-chain RSV F with T4 fibritin trimerisation motif; Expressed in ExpiCHO cells, purified through the C-tag; also called RSV-F-SpyTag-Ctag; RSF-F-SpyTag
binding result: binds
